The text below walks through data of US20250333714A1, “ARTIFICIAL DNA REPLISOME AND METHODS OF USE THEREOF” (Regents of the University of Minnesota, priority 2021, published 2025).

One data set relates to DNA. Particulars: cited from earlier work.
For another data set, the system named is primed DNA substrate. The data set is described as follows: association of DNA polymerase with primed DNA substrate. Type of data set: binding. Particulars: local effective concentration of polymerase 0.2-0.6 mM; kon of T7 assumed. The method, then:
The artificial replisome must simultaneously unwind DNA and copy the exposed strand to prevent degradation of the exposed ssDNA, which causes genetic instability. In addition, DNA synthesis must avoid premature termination within the target region. Connecting Rep helicase and T5 DNA polymerase with a flexible linker increases the local effective concentrations to an estimated 0.2-0.6 mM(Li et al., Protein Sci, 27 (9): 1600-1610, (2018)) in order to achieve both of these goals. The CisA protein recruits Rep helicase to the target region and stabilizes it. Rep helicase unwinds DNA at about 144 base-pairs/s (Arslan et al., Science (New York, N.Y.), 348 (6232): 344-347, (2015)), so DNA synthesis must initiate at least that fast to proceed simultaneously. The bimolecular association rate constant of T7 DNA polymerase (kon) for primed DNA substrate is 3.6×10^7M^−1s^−1 (Luo et al., Proceedings of the National Academy of Sciences, 104 (31): 12610-12615, (2007)) and it was assumed T5 DNA polymerase associates at a similar rate. If the local effective concentration of polymerase is 0.2-0.6 mM, then the rate of association is 7200-22,000 s^−1, which far exceeds the rate of unwinding. […]

The conditions of data set [1]: six-His tag linked to C-terminus; cited from earlier work.

Take “E. coli PolA: E. coli DNA polymerase I, slower than Rep helicase”: the “speed of DNA unwinding or DNA synthesis” value in the data set with DNA is about 15 base-pairs/s.

B1: T5 DNA polymerase: DNA polymerase of bacteriophage T5, NCBI YP_006950.1, SEQ ID NO:1 (protein)
chain: MKIAVVDKALNNTRYDKHFQLYGEEVDVFHMCNEKLSGRLLKKHITIGTPENPFDPNDYDFVILVGAEPFLYFAGKKGIGDYTGKRVEYNGYANWIASISPAQLHFKPEMKPVFDATVENIHDIINGREKIAKAGDYRPITDPDEAEEYIKMVYNMVIGPVAFDSETSALYCRDGYLLGVSISHQEYQGVYIDSDCLTEVAVYYLQKILDSENHTIVFHNLKFDMHFYKYHLGLTFDKAHKERRLHDTMLQHYVLDERRGTHGLKSLAMKYTDMGDYDFELDKFKDDYCKAHKIKKEDFTYDLIPFDIMWPYAAKDTDATIRLHNFFLPKIEKNEKLCSLYYDVLMPGCVFLQRVEDRGVPISIDRLKEAQYQLTHNLNKAREKLYTYPEVKQLEQDQNEAFNPNSVKQLRVLLFDYVGLTPTGKLTDTGADSTDAEALNELATQHPIAKTLLEIRKLTKLISTYVEKILLSIDADGCIRTGFHEHMTTSGRLSSSGKLNLQQLPRDESIIKGCVVAPPGYRVIAWDLTTAEVYYAAVLSGDRNMQQVFINMRNEPDKYPDFHSNIAHMVFKLQCEPRDVKKLFPALRQAAKAITFGILYGSGPAKVAHSVNEALLEQAAKTGEPFVECTVADAKEYIETYFGQFPQLKRWIDKCHDQIKNHGFIYSHFGRKRRLHNIHSEDRGVQGEEIRSGFNAIIQSASSDSLLLGAVDADNEIISLGLEQEMKIVMLVHDSVVAIVREDLIDQYNEILIRNIQKDRGISIPGCPIGIDSDSEAGGSRDYSCGKMKKQHPSIACIDDDEYTRYVKGVLLDAEFEYKKLAAMDKEHPDHSKYKDDKFIAVCKDLDNVKRILGA
modifications: Escherichia virus T5
As to B1, in the data set on primed DNA substrate, the rate of association is on record as 7200-22,000 s^−1. In addition, the “effect of six-His tag on polymerase activity” value in data set [1] was “did not interfere with polymerase activity”.
